Measured values: publication PMC7607744 (2020)
No end group written: not given here.

Target: T1, CD138pep (also: FITC-labeled, site not given here)
T1 chain: RKRLQVQLSIRT-NH2
Experiment: flow cytometry binding to H929 cells

Kd: 3.1 µM
B1: CD138 (Syndecan-1) (protein)
chain: QIVATNLPPEDQDGSGDDSDNFSGSGAGALQDITLSQQTPSTWKDTQLLTAIPTSPEPTGLEATAASTSTLPAGEGPKEGEAVVLPEVEPGLTAREQEATPRPRETTQLPTTHLASTTTATTAQEPATSHPHRDMQPGHHETSTPAGPSQADLHTPHTEDGGPSATERAAEDGASSQLPAAEGSGEQDFTFETSGENTAVVAVEPDRRNQSPVDQGATGASQGLLDRKEVLG
